Target: cynomolgus PD-1 expressed on CHO cells (cynomolgus monkey)
Test: cPD-1 binding titration (format not named; taken as cell binding)

Bmax	Kd [nM]	Binder
2960	0.3	1353-G10 H1 HC IgG (antibody, V domains shown) VH: EVQLVQSGAEVKKPGASVKVSCKASGYTFDSYGISWVRQAPGQGLEWMGWISAYNGNTNYAQKLQGRVTMTTDTSTNTAYMELRSLRSDDTAVYYCARDVDYGTGSGYWGQGTLVTVSS VL: SYELTQPPSVSVSPGQTARITCSGDALPKQYAYWYQQKPGQAPVMVIYKDTERPSGIPERFSGSSSGTKVTLTISGVQAEDEADYYCQSADNSITYRVFGGGTKVTVL
2800	2.3	1353-G10 H1/vk1-39 IgG (antibody, V domains shown) VH: EVQLVQSGAEVKKPGASVKVSCKASGYTFDSYGISWVRQAPGQGLEWMGWISAYNGNTNYAQKLQGRVTMTTDTSTNTAYMELRSLRSDDTAVYYCARDVDYGTGSGYWGQGTLVTVSS VL: DIQLTQSPSSLSASVGDRVTITCSGDALPKQYAYWYQQKPGKAPKLLIYKDTERPSGVPSRFSGSSSGTKVTLTISSLQPEDFATYYCQSADNSITYRVFGGGTKVEIK

Reference: US20200190192A1
